Among the data in US20210238260 are kcat of FX activation by FIXa (Xase complex with FVIIIa, PC/PS vesicles, Ca2+) and KM values, retold here.

The labels stand for the following.
B1: FIXa-R318Y/R338E/Y345A/R403E/E410N (protein)
chain 1: YNSGKLEEFVQGNLERECMEEKCSFEEAREVFENTERTTEFWKQYVDGDQCESNPCLNGGSCKDDINSYECWCPFGFEGKNCELDVTCNIKNGRCEQFCKNSADNKVVCSCTEGYRLAENQKSCEPAVPFPCGRVSVSQTSKLTR
chain 2: VVGGEDAKPGQFPWQVVLNGKVDAFCGGSIVNEKWIVTAAHCVETGVKITVVAGEHNIEETEHTEQKRNVIRIIPHHNYNAAINKYNHDIALLELDEPLVLNSYVTPICIADKEYTNIFLKFGSGYVSGWGRVFHKGYSALVLQYLRVPLVDRATCLESTKFTIANNMFCAGFHEGGRDSCQGDSGGPHVTEVEGTSFLTGIISWGEECAMKGKYGIYTKVSEYVNWIKNKTKLT
B2: FIXa D203N/F205T/R338A (protein)
chain 1: YNSGKLEEFVQGNLERECMEEKCSFEEAREVFENTERTTEFWKQYVDGDQCESNPCLNGGSCKDDINSYECWCPFGFEGKNCELDVTCNIKNGRCEQFCKNSADNKVVCSCTEGYRLAENQKSCEPAVPFPCGRVSVSQTSKLTR
chain 2: VVGGEDAKPGQFPWQVVLNGKVNATCGGSIVNEKWIVTAAHCVETGVKITVVAGEHNIEETEHTEQKRNVIRIIPHHNYNAAINKYNHDIALLELDEPLVLNSYVTPICIADKEYTNIFLKFGSGYVSGWGRVFHKGRSALVLQYLRVPLVDRATCLASTKFTIYNNMFCAGFHEGGRDSCQGDSGGPHVTEVEGTSFLTGIISWGEECAMKGKYGIYTKVSRYVNWIKEKTKLT
B3: FIXa Y155F/R318Y/R338E/R403E (protein)
chain 1: YNSGKLEEFVQGNLERECMEEKCSFEEAREVFENTERTTEFWKQYVDGDQCESNPCLNGGSCKDDINSYECWCPFGFEGKNCELDVTCNIKNGRCEQFCKNSADNKVVCSCTEGYRLAENQKSCEPAVPFPCGRVSVSQTSKLTR
chain 2: VVGGEDAKPGQFPWQVVLNGKVDAFCGGSIVNEKWIVTAAHCVETGVKITVVAGEHNIEETEHTEQKRNVIRIIPHHNYNAAINKYNHDIALLELDEPLVLNSYVTPICIADKEYTNIFLKFGSGYVSGWGRVFHKGYSALVLQYLRVPLVDRATCLESTKFTIYNNMFCAGFHEGGRDSCQGDSGGPHVTEVEGTSFLTGIISWGEECAMKGKYGIYTKVSEYVNWIKEKTKLT
B4: FIXa K228N/R338E/R403E (protein)
chain 1: YNSGKLEEFVQGNLERECMEEKCSFEEAREVFENTERTTEFWKQYVDGDQCESNPCLNGGSCKDDINSYECWCPFGFEGKNCELDVTCNIKNGRCEQFCKNSADNKVVCSCTEGYRLAENQKSCEPAVPFPCGRVSVSQTSKLTR
chain 2: VVGGEDAKPGQFPWQVVLNGKVDAFCGGSIVNEKWIVTAAHCVETGVNITVVAGEHNIEETEHTEQKRNVIRIIPHHNYNAAINKYNHDIALLELDEPLVLNSYVTPICIADKEYTNIFLKFGSGYVSGWGRVFHKGRSALVLQYLRVPLVDRATCLESTKFTIYNNMFCAGFHEGGRDSCQGDSGGPHVTEVEGTSFLTGIISWGEECAMKGKYGIYTKVSEYVNWIKEKTKLT
B5: FIXa D203N/F205T/R318Y (protein)
chain 1: YNSGKLEEFVQGNLERECMEEKCSFEEAREVFENTERTTEFWKQYVDGDQCESNPCLNGGSCKDDINSYECWCPFGFEGKNCELDVTCNIKNGRCEQFCKNSADNKVVCSCTEGYRLAENQKSCEPAVPFPCGRVSVSQTSKLTR
chain 2: VVGGEDAKPGQFPWQVVLNGKVNATCGGSIVNEKWIVTAAHCVETGVKITVVAGEHNIEETEHTEQKRNVIRIIPHHNYNAAINKYNHDIALLELDEPLVLNSYVTPICIADKEYTNIFLKFGSGYVSGWGRVFHKGYSALVLQYLRVPLVDRATCLRSTKFTIYNNMFCAGFHEGGRDSCQGDSGGPHVTEVEGTSFLTGIISWGEECAMKGKYGIYTKVSRYVNWIKEKTKLT
B6: FIXa R318Y/R338E/R403E (protein)
chain 1: YNSGKLEEFVQGNLERECMEEKCSFEEAREVFENTERTTEFWKQYVDGDQCESNPCLNGGSCKDDINSYECWCPFGFEGKNCELDVTCNIKNGRCEQFCKNSADNKVVCSCTEGYRLAENQKSCEPAVPFPCGRVSVSQTSKLTR
chain 2: VVGGEDAKPGQFPWQVVLNGKVDAFCGGSIVNEKWIVTAAHCVETGVKITVVAGEHNIEETEHTEQKRNVIRIIPHHNYNAAINKYNHDIALLELDEPLVLNSYVTPICIADKEYTNIFLKFGSGYVSGWGRVFHKGYSALVLQYLRVPLVDRATCLESTKFTIYNNMFCAGFHEGGRDSCQGDSGGPHVTEVEGTSFLTGIISWGEECAMKGKYGIYTKVSEYVNWIKEKTKLT
B7: FIXa R338E/R403E/E410N (protein)
chain 1: YNSGKLEEFVQGNLERECMEEKCSFEEAREVFENTERTTEFWKQYVDGDQCESNPCLNGGSCKDDINSYECWCPFGFEGKNCELDVTCNIKNGRCEQFCKNSADNKVVCSCTEGYRLAENQKSCEPAVPFPCGRVSVSQTSKLTR
chain 2: VVGGEDAKPGQFPWQVVLNGKVDAFCGGSIVNEKWIVTAAHCVETGVKITVVAGEHNIEETEHTEQKRNVIRIIPHHNYNAAINKYNHDIALLELDEPLVLNSYVTPICIADKEYTNIFLKFGSGYVSGWGRVFHKGRSALVLQYLRVPLVDRATCLESTKFTIYNNMFCAGFHEGGRDSCQGDSGGPHVTEVEGTSFLTGIISWGEECAMKGKYGIYTKVSEYVNWIKNKTKLT
B8: FIXa D203N/F205T/K228N (protein)
chain 1: YNSGKLEEFVQGNLERECMEEKCSFEEAREVFENTERTTEFWKQYVDGDQCESNPCLNGGSCKDDINSYECWCPFGFEGKNCELDVTCNIKNGRCEQFCKNSADNKVVCSCTEGYRLAENQKSCEPAVPFPCGRVSVSQTSKLTR
chain 2: VVGGEDAKPGQFPWQVVLNGKVNATCGGSIVNEKWIVTAAHCVETGVNITVVAGEHNIEETEHTEQKRNVIRIIPHHNYNAAINKYNHDIALLELDEPLVLNSYVTPICIADKEYTNIFLKFGSGYVSGWGRVFHKGRSALVLQYLRVPLVDRATCLRSTKFTIYNNMFCAGFHEGGRDSCQGDSGGPHVTEVEGTSFLTGIISWGEECAMKGKYGIYTKVSRYVNWIKEKTKLT
B9: FIXa D203N/F205T/E410N (protein)
chain 1: YNSGKLEEFVQGNLERECMEEKCSFEEAREVFENTERTTEFWKQYVDGDQCESNPCLNGGSCKDDINSYECWCPFGFEGKNCELDVTCNIKNGRCEQFCKNSADNKVVCSCTEGYRLAENQKSCEPAVPFPCGRVSVSQTSKLTR
chain 2: VVGGEDAKPGQFPWQVVLNGKVNATCGGSIVNEKWIVTAAHCVETGVKITVVAGEHNIEETEHTEQKRNVIRIIPHHNYNAAINKYNHDIALLELDEPLVLNSYVTPICIADKEYTNIFLKFGSGYVSGWGRVFHKGRSALVLQYLRVPLVDRATCLRSTKFTIYNNMFCAGFHEGGRDSCQGDSGGPHVTEVEGTSFLTGIISWGEECAMKGKYGIYTKVSRYVNWIKNKTKLT
B10: FIXa R318Y/R338E/E410N (protein)
chain 1: YNSGKLEEFVQGNLERECMEEKCSFEEAREVFENTERTTEFWKQYVDGDQCESNPCLNGGSCKDDINSYECWCPFGFEGKNCELDVTCNIKNGRCEQFCKNSADNKVVCSCTEGYRLAENQKSCEPAVPFPCGRVSVSQTSKLTR
chain 2: VVGGEDAKPGQFPWQVVLNGKVDAFCGGSIVNEKWIVTAAHCVETGVKITVVAGEHNIEETEHTEQKRNVIRIIPHHNYNAAINKYNHDIALLELDEPLVLNSYVTPICIADKEYTNIFLKFGSGYVSGWGRVFHKGYSALVLQYLRVPLVDRATCLESTKFTIYNNMFCAGFHEGGRDSCQGDSGGPHVTEVEGTSFLTGIISWGEECAMKGKYGIYTKVSRYVNWIKNKTKLT
B11: FIXa-R318Y/R338E/Y345A/N346D/R403E/E410N (protein)
chain 1: YNSGKLEEFVQGNLERECMEEKCSFEEAREVFENTERTTEFWKQYVDGDQCESNPCLNGGSCKDDINSYECWCPFGFEGKNCELDVTCNIKNGRCEQFCKNSADNKVVCSCTEGYRLAENQKSCEPAVPFPCGRVSVSQTSKLTR
chain 2: VVGGEDAKPGQFPWQVVLNGKVDAFCGGSIVNEKWIVTAAHCVETGVKITVVAGEHNIEETEHTEQKRNVIRIIPHHNYNAAINKYNHDIALLELDEPLVLNSYVTPICIADKEYTNIFLKFGSGYVSGWGRVFHKGYSALVLQYLRVPLVDRATCLESTKFTIADNMFCAGFHEGGRDSCQGDSGGPHVTEVEGTSFLTGIISWGEECAMKGKYGIYTKVSEYVNWIKNKTKLT
B12: FIXa Y155F/R338E/R403E/E410N (protein)
chain 1: YNSGKLEEFVQGNLERECMEEKCSFEEAREVFENTERTTEFWKQYVDGDQCESNPCLNGGSCKDDINSYECWCPFGFEGKNCELDVTCNIKNGRCEQFCKNSADNKVVCSCTEGYRLAENQKSCEPAVPFPCGRVSVSQTSKLTR
chain 2: VVGGEDAKPGQFPWQVVLNGKVDAFCGGSIVNEKWIVTAAHCVETGVKITVVAGEHNIEETEHTEQKRNVIRIIPHHNYNAAINKYNHDIALLELDEPLVLNSYVTPICIADKEYTNIFLKFGSGYVSGWGRVFHKGRSALVLQYLRVPLVDRATCLRSTKFTIYNNMFCAGFHEGGEDSCQGDSGGPHVTEVEGTSFLTGIISWGEECAMKGKYGIYTKVSEYVNWIKNKTKLT
B13: FIXa D203N/F205T/R338E/R403E (protein)
chain 1: YNSGKLEEFVQGNLERECMEEKCSFEEAREVFENTERTTEFWKQYVDGDQCESNPCLNGGSCKDDINSYECWCPFGFEGKNCELDVTCNIKNGRCEQFCKNSADNKVVCSCTEGYRLAENQKSCEPAVPFPCGRVSVSQTSKLTR
chain 2: VVGGEDAKPGQFPWQVVLNGKVNATCGGSIVNEKWIVTAAHCVETGVKITVVAGEHNIEETEHTEQKRNVIRIIPHHNYNAAINKYNHDIALLELDEPLVLNSYVTPICIADKEYTNIFLKFGSGYVSGWGRVFHKGRSALVLQYLRVPLVDRATCLESTKFTIYNNMFCAGFHEGGRDSCQGDSGGPHVTEVEGTSFLTGIISWGEECAMKGKYGIYTKVSEYVNWIKEKTKLT
B14: FIXa D203N/F205T/R338E (protein)
chain 1: YNSGKLEEFVQGNLERECMEEKCSFEEAREVFENTERTTEFWKQYVDGDQCESNPCLNGGSCKDDINSYECWCPFGFEGKNCELDVTCNIKNGRCEQFCKNSADNKVVCSCTEGYRLAENQKSCEPAVPFPCGRVSVSQTSKLTR
chain 2: VVGGEDAKPGQFPWQVVLNGKVNATCGGSIVNEKWIVTAAHCVETGVKITVVAGEHNIEETEHTEQKRNVIRIIPHHNYNAAINKYNHDIALLELDEPLVLNSYVTPICIADKEYTNIFLKFGSGYVSGWGRVFHKGRSALVLQYLRVPLVDRATCLESTKFTIYNNMFCAGFHEGGRDSCQGDSGGPHVTEVEGTSFLTGIISWGEECAMKGKYGIYTKVSRYVNWIKEKTKLT

Sequence of Factor X (FX), P00742 (P00742 whole entry, looked up): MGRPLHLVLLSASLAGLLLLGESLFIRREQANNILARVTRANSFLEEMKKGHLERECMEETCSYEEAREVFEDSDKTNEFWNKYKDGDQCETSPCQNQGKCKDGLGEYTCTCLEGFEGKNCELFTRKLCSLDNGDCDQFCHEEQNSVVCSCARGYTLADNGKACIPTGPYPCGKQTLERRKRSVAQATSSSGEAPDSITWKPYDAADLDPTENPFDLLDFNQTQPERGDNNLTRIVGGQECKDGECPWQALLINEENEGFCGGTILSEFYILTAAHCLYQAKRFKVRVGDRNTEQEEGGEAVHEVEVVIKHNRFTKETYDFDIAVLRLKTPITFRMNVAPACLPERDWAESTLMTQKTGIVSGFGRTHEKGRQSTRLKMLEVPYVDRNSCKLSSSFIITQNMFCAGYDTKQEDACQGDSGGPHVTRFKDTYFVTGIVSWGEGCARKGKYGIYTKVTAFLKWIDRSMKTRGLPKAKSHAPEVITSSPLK

This data set concerns the target Factor X (FX), P00742.
In the case of B1, the kcat of FX activation by FIXa (Xase complex with FVIIIa, PC/PS vesicles, Ca2+) turned out to be 1.4 s⁻¹.

As usually defined, the KM is the substrate concentration at which the rate is half of its maximum. Turning to B2, the KM was 0.0385 µM. Take B3: the Michaelis-Menten constant (KM) came to 0.0671 µM. Same read-out and setting: then B4, with 0.0592 µM; and B5, with 0.0475 µM; and B6, with 0.0597 µM. In the case of B7, the KM stood at 0.0367 µM. The same measure, in the same setting: then B8, with 0.0399 µM; and B9, with 0.0455 µM; and B10, with 0.0139 µM. As for B11, the kcat of FX activation by FIXa (Xase complex with FVIIIa, PC/PS vesicles, Ca2+) is 1.2 s⁻¹. As for B12, the KM worked out at 0.0336 µM. Same read-out and setting: then B13, with 0.0511 µM; and B14, with 0.0241 µM.
